What was measured:
Assay in all cases: anti-Flag IP-MS, mES nuclear extract
Pou5f1 (mouse) = Pou5f1 (mouse) (UniProt P20263)
Ranbp1 (mouse) = Ranbp1 (mouse) (UniProt P34022)
Mcm2 (mouse) = Mcm2 (mouse) (UniProt P97310)
Rad21 (mouse) = Rad21 (mouse) (UniProt Q61550)
Cct7 (mouse) = Cct7 (mouse) (UniProt P80313)
Dnmt3b (mouse) = Dnmt3b (mouse) (UniProt O88509)
Tcp1 (mouse) = Tcp1 (mouse) (UniProt P11983)
Racgap1 (mouse) = Racgap1 (mouse) (UniProt Q9WVM1)
Akr1b3 (mouse) = Akr1b3 (mouse) (UniProt P45376)
Mtap1b (mouse) = Mtap1b (mouse) (UniProt P14873)
Ddb1 (mouse) = Ddb1 (mouse) (UniProt Q3U1J4)
Pcbp1 (mouse) = Pcbp1 (mouse) (UniProt P60335)
Sall4 (mouse) = Sall4 (mouse) (UniProt Q8BX22)
Gm1040 (mouse) = Gm1040 (mouse) (UniProt Q3UFM5)
Upf1 (mouse) = Upf1 (mouse) (UniProt Q9EPU0)
Ddx20 (mouse) = Ddx20 (mouse) (UniProt Q9JJY4)
Sequence of Ddx20 (mouse) (Q9JJY4 whole entry): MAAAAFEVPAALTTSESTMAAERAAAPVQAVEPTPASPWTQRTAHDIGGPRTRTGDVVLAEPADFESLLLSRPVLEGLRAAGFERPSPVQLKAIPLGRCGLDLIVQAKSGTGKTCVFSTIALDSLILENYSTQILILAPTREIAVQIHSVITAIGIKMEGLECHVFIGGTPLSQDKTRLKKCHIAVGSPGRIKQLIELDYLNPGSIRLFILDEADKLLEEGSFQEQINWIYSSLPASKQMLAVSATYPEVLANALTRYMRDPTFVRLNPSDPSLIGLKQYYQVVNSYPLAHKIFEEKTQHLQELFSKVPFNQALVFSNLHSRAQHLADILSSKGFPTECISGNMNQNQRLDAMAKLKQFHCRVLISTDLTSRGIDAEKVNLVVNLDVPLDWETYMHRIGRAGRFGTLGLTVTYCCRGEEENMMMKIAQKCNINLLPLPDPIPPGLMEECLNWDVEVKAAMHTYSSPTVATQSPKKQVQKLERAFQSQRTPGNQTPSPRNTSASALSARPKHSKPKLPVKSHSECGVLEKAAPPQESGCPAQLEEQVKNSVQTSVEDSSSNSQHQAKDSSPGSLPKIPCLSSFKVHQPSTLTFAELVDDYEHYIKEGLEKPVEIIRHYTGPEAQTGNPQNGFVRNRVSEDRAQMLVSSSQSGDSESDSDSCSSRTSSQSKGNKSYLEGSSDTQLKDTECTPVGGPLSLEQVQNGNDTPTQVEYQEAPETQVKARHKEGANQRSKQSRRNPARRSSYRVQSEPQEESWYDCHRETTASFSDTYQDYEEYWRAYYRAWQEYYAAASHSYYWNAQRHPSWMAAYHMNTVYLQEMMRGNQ

Tufm (mouse) = Tufm (mouse) (UniProt Q8BFR5)
Xpo1 (mouse) = Xpo1 (mouse) (UniProt Q6P5F9)
Sfrs17b (mouse) = Sfrs17b (mouse) (UniProt A2A3V1)
Sequence of Sfrs17b (mouse) (A2A3V1 whole entry): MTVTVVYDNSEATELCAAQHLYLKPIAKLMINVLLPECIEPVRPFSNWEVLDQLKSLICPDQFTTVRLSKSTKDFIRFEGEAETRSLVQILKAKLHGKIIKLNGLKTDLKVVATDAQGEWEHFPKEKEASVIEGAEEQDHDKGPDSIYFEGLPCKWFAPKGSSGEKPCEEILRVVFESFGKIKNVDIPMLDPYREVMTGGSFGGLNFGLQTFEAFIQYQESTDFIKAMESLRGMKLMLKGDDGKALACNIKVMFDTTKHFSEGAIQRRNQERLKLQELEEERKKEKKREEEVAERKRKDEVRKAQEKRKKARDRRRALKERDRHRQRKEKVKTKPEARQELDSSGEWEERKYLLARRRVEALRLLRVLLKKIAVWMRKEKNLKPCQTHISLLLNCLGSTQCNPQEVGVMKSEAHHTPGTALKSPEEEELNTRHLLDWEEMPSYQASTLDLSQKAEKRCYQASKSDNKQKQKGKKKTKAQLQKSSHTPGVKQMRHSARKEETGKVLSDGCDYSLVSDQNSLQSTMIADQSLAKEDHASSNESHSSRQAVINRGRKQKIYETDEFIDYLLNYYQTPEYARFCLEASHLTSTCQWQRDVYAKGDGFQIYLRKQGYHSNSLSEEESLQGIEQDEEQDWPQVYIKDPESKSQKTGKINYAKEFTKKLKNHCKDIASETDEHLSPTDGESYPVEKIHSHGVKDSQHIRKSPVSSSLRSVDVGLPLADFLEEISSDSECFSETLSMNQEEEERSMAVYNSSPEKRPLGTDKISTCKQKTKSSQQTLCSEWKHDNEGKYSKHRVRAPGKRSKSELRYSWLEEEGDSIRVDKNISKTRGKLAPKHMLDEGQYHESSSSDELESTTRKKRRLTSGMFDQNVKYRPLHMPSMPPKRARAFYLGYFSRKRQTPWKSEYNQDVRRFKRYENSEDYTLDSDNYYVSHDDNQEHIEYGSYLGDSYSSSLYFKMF

Chd4 (mouse) = Chd4 (mouse) (UniProt Q6PDQ2)
Tet1 (mouse) = Tet1 (mouse) (UniProt Q3URK3)
Hspd1 (mouse) = Hspd1 (mouse) (UniProt P63038)
Sequence of Hspd1 (mouse) (P63038 27-573 limits assumed): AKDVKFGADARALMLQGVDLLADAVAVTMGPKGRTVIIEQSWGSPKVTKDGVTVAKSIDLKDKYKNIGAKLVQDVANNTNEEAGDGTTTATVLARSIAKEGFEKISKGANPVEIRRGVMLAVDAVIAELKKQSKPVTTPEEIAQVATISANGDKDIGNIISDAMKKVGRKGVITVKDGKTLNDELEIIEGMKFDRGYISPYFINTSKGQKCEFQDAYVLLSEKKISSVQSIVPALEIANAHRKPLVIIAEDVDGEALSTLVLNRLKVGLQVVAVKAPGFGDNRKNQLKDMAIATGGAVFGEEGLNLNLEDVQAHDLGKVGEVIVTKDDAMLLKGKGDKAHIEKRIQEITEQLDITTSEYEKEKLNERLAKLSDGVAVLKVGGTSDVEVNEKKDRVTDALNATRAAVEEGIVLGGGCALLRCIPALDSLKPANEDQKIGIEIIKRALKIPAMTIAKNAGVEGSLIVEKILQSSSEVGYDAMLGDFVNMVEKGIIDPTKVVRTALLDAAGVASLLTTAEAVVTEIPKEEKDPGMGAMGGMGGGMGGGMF

Pkm2 (mouse) = Pkm2 (mouse) (UniProt P52480)
Zfp281 (mouse) = Zfp281 (mouse) (UniProt Q99LI5)
Sequence of Zfp281 (mouse) (Q99LI5 whole entry): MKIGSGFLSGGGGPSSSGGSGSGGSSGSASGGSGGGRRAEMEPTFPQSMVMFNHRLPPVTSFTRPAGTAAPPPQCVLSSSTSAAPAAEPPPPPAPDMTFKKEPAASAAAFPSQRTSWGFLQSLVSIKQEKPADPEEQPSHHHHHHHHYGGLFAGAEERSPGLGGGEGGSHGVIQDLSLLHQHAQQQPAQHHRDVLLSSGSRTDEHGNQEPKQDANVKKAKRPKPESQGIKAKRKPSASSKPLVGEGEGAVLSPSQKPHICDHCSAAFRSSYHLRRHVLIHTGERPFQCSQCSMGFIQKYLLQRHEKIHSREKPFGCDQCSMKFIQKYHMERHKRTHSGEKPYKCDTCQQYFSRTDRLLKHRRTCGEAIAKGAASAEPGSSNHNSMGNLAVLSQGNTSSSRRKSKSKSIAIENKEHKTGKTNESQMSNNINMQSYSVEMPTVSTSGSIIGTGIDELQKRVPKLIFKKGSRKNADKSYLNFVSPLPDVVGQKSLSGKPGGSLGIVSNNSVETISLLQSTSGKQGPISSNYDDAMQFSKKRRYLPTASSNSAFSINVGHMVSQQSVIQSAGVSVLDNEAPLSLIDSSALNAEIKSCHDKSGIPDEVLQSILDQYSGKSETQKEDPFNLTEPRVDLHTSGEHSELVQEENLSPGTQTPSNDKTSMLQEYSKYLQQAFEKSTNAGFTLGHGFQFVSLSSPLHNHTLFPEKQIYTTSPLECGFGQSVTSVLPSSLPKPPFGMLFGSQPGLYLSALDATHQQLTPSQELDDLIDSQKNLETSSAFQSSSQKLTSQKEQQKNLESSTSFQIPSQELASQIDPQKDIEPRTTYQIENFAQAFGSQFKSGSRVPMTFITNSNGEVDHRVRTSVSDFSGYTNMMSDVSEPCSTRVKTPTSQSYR

Ruvbl2 (mouse) = Ruvbl2 (mouse) (UniProt Q9WTM5)
Emd (mouse) = Emd (mouse) (UniProt O08579)
Rpn1 (mouse) = Rpn1 (mouse) (UniProt Q91YQ5)
Cse1l (mouse) = Cse1l (mouse) (UniProt Q9ERK4)
Lmna (mouse) = Lmna (mouse) (UniProt P48678)
Gcn1l1 (mouse) = Gcn1l1 (mouse) (UniProt E9PVA8)
Dnaja1 (mouse) = Dnaja1 (mouse) (UniProt P63037)
Kif11 (mouse) = Kif11 (mouse) (UniProt Q6P9P6)
Pfkl (mouse) = Pfkl (mouse) (UniProt P12382)
Sequence of Pfkl (mouse) (P12382 2-780 limits assumed): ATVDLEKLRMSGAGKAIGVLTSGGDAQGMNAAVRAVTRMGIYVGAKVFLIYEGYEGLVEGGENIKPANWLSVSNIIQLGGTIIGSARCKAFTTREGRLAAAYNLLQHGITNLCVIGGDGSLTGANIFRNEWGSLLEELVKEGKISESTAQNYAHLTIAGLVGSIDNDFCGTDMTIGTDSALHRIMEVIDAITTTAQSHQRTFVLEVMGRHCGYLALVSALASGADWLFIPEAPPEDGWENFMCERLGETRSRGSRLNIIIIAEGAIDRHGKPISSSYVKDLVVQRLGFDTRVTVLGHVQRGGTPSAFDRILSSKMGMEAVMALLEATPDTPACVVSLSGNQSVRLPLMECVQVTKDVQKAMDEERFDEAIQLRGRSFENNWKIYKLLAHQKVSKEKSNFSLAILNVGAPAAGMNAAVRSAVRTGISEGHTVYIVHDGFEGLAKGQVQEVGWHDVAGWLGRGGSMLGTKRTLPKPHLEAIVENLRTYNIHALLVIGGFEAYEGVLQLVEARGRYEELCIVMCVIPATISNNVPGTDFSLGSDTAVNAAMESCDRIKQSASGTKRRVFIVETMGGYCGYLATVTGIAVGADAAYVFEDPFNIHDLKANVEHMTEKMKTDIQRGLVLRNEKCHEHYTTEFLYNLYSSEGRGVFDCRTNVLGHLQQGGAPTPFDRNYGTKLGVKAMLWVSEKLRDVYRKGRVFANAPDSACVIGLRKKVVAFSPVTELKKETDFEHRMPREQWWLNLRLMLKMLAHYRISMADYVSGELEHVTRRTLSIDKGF

Smarca1 (mouse) = Smarca1 (mouse) (UniProt Q6PGB8)
Psmd2 (mouse) = Psmd2 (mouse) (UniProt Q8VDM4)
Sequence of Psmd2 (mouse) (Q8VDM4 whole entry): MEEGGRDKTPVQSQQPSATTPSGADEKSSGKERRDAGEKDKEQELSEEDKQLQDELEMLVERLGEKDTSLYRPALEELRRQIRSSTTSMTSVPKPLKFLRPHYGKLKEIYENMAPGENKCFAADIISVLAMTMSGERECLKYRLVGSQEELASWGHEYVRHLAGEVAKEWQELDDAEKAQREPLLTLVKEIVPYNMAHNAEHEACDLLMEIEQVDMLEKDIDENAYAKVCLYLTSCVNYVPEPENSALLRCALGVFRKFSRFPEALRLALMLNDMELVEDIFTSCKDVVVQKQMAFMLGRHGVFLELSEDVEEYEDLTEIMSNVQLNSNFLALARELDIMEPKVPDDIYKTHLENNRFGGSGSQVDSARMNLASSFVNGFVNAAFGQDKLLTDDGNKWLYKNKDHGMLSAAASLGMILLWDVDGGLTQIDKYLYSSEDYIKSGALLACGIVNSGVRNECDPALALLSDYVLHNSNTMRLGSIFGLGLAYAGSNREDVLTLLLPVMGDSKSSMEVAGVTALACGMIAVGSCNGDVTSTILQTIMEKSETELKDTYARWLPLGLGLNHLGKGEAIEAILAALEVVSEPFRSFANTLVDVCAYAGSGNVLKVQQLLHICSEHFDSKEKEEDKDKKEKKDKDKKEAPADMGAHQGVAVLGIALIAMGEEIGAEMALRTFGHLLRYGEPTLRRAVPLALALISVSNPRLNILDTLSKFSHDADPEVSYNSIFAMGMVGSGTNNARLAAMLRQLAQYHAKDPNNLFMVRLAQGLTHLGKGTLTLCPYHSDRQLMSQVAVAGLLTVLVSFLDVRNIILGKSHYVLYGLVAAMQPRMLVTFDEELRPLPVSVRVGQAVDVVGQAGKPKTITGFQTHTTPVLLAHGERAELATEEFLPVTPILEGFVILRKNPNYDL

Nol9 (mouse) = Nol9 (mouse) (UniProt Q3TZX8)
Ranbp2 (mouse) = Ranbp2 (mouse) (UniProt Q9ERU9)
[1] = biological target: LOC100045999; Ran (mouse) (UniProt P62827)
Smpd4 (mouse) = Smpd4 (mouse) (UniProt Q6ZPR5)
Eno2 (mouse) = Eno2 (mouse) (UniProt P17183)

Substance 2x Flag tag only (control) (peptide) has a Nucleus peptide (Pou5f1 (mouse)) of 2 peptides, a Nucleus spectra (Pou5f1 (mouse)) of 3 spectra and a Nucleus peptide (Ranbp1 (mouse)) of 1 peptides. For the same substance, the Nucleus spectra (Ranbp1 (mouse)) was 2 spectra, the Nucleus peptide (Mcm2 (mouse)) was 4 peptides and the Nucleus spectra (Mcm2 (mouse)) was 5 spectra. For the same substance, the Nucleus peptide (Rad21 (mouse)) was 0 peptides, the Nucleus spectra (Rad21 (mouse)) was 0 spectra and the Nucleus peptide (Cct7 (mouse)) was 0 peptides. It also gave a Nucleus spectra (Cct7 (mouse)) of 0 spectra, a Nucleus peptide (Dnmt3b (mouse)) of 0 peptides and a Nucleus spectra (Dnmt3b (mouse)) of 0 spectra. It also gave a Nucleus peptide (Tcp1 (mouse)) of 1 peptides, a Nucleus spectra (Tcp1 (mouse)) of 2 spectra and a Nucleus peptide (Racgap1 (mouse)) of 3 peptides. It also gave a Nucleus spectra (Racgap1 (mouse)) of 3 spectra, a Nucleus peptide (Akr1b3 (mouse)) of 2 peptides and a Nucleus spectra (Akr1b3 (mouse)) of 2 spectra. It also gave a Nucleus peptide (Mtap1b (mouse)) of 0 peptides, a Nucleus spectra (Mtap1b (mouse)) of 0 spectra and a Nucleus peptide (Ddb1 (mouse)) of 0 peptides. For the same substance, the Nucleus spectra (Ddb1 (mouse)) was 0 spectra, the Nucleus peptide (Pcbp1 (mouse)) was 2 peptides and the Nucleus spectra (Pcbp1 (mouse)) was 6 spectra. For the same substance, the Nucleus peptide (Sall4 (mouse)) was 1 peptides, the Nucleus spectra (Sall4 (mouse)) was 1 spectra and the Nucleus peptide (Gm1040 (mouse)) was 1 peptides. It also gave a Nucleus spectra (Gm1040 (mouse)) of 1 spectra, a Nucleus peptide (Upf1 (mouse)) of 2 peptides and a Nucleus spectra (Upf1 (mouse)) of 3 spectra. For the same substance, the Nucleus peptide (Ddx20 (mouse)) was 1 peptides, the Nucleus spectra (Ddx20 (mouse)) was 1 spectra and the Nucleus peptide (Tufm (mouse)) was 6 peptides. For the same substance, the Nucleus spectra (Tufm (mouse)) was 11 spectra, the Nucleus peptide (Xpo1 (mouse)) was 0 peptides and the Nucleus spectra (Xpo1 (mouse)) was 0 spectra. For the same substance, the Nucleus peptide (Sfrs17b (mouse)) was 2 peptides, the Nucleus spectra (Sfrs17b (mouse)) was 2 spectra and the Nucleus peptide (Chd4 (mouse)) was 4 peptides. For the same substance, the Nucleus spectra (Chd4 (mouse)) was 6 spectra, the Nucleus peptide (Tet1 (mouse)) was 1 peptides and the Nucleus peptide (Hspd1 (mouse)) was 5 peptides. The Nucleus spectra (Hspd1 (mouse)) was 11 spectra, the Nucleus peptide (Pkm2 (mouse)) was 1 peptides and the Nucleus spectra (Pkm2 (mouse)) was 1 spectra. For the same substance, the Nucleus peptide (Zfp281 (mouse)) was 3 peptides, the Nucleus spectra (Zfp281 (mouse)) was 5 spectra and the Nucleus peptide (Ruvbl2 (mouse)) was 4 peptides. For the same substance, the Nucleus spectra (Ruvbl2 (mouse)) was 10 spectra, the Nucleus peptide (Emd (mouse)) was 1 peptides and the Nucleus spectra (Emd (mouse)) was 1 spectra. It also gave a Nucleus peptide (Rpn1 (mouse)) of 0 peptides, a Nucleus spectra (Rpn1 (mouse)) of 0 spectra and a Nucleus peptide (Cse1l (mouse)) of 0 peptides. For the same substance, the Nucleus spectra (Cse1l (mouse)) was 0 spectra, the Nucleus peptide (Lmna (mouse)) was 1 peptides and the Nucleus spectra (Lmna (mouse)) was 3 spectra. It also gave a Nucleus peptide (Gcn1l1 (mouse)) of 3 peptides, a Nucleus spectra (Gcn1l1 (mouse)) of 5 spectra and a Nucleus peptide (Dnaja1 (mouse)) of 3 peptides. The Nucleus spectra (Dnaja1 (mouse)) was 5 spectra, the Nucleus peptide (Kif11 (mouse)) was 0 peptides and the Nucleus spectra (Kif11 (mouse)) was 0 spectra. The Nucleus peptide (Pfkl (mouse)) was 1 peptides, the Nucleus spectra (Pfkl (mouse)) was 1 spectra and the Nucleus peptide (Smarca1 (mouse)) was 2 peptides. For the same substance, the Nucleus spectra (Smarca1 (mouse)) was 3 spectra, the Nucleus peptide (Psmd2 (mouse)) was 1 peptides and the Nucleus spectra (Psmd2 (mouse)) was 1 spectra. For the same substance, the Nucleus peptide (Nol9 (mouse)) was 1 peptides, the Nucleus spectra (Nol9 (mouse)) was 1 spectra and the Nucleus peptide (Ranbp2 (mouse)) was 8 peptides. The Nucleus spectra (Ranbp2 (mouse)) was 12 spectra, the Nucleus peptide [1] was 1 peptides and the Nucleus spectra [1] was 2 spectra. The Nucleus peptide (Smpd4 (mouse)) was 4 peptides, the Nucleus spectra (Smpd4 (mouse)) was 8 spectra and the Nucleus peptide (Eno2 (mouse)) was 1 peptides. It also gave a Nucleus spectra (Eno2 (mouse)) of 2 spectra.

“human AID containing two tandem Flag tags (Flag-human AID) (from UniProt Q9GZX7 1-198) (enzyme)” gave a Nucleus peptide (Pou5f1 (mouse)) of 4 peptides, a Nucleus spectra (Pou5f1 (mouse)) of 13 spectra and a Nucleus peptide (Ranbp1 (mouse)) of 2 peptides. It also gave a Nucleus spectra (Ranbp1 (mouse)) of 7 spectra, a Nucleus peptide (Mcm2 (mouse)) of 9 peptides and a Nucleus spectra (Mcm2 (mouse)) of 21 spectra. The Nucleus peptide (Rad21 (mouse)) was 3 peptides, the Nucleus spectra (Rad21 (mouse)) was 6 spectra and the Nucleus peptide (Cct7 (mouse)) was 3 peptides. It also gave a Nucleus spectra (Cct7 (mouse)) of 5 spectra, a Nucleus peptide (Dnmt3b (mouse)) of 4 peptides and a Nucleus spectra (Dnmt3b (mouse)) of 9 spectra. For the same substance, the Nucleus peptide (Tcp1 (mouse)) was 3 peptides, the Nucleus spectra (Tcp1 (mouse)) was 5 spectra and the Nucleus peptide (Racgap1 (mouse)) was 6 peptides. It also gave a Nucleus spectra (Racgap1 (mouse)) of 7 spectra, a Nucleus peptide (Akr1b3 (mouse)) of 4 peptides and a Nucleus spectra (Akr1b3 (mouse)) of 11 spectra. For the same substance, the Nucleus peptide (Mtap1b (mouse)) was 11 peptides, the Nucleus spectra (Mtap1b (mouse)) was 24 spectra and the Nucleus peptide (Ddb1 (mouse)) was 3 peptides. For the same substance, the Nucleus spectra (Ddb1 (mouse)) was 3 spectra, the Nucleus peptide (Pcbp1 (mouse)) was 5 peptides and the Nucleus spectra (Pcbp1 (mouse)) was 13 spectra. For the same substance, the Nucleus peptide (Sall4 (mouse)) was 6 peptides, the Nucleus spectra (Sall4 (mouse)) was 10 spectra and the Nucleus peptide (Gm1040 (mouse)) was 5 peptides. For the same substance, the Nucleus spectra (Gm1040 (mouse)) was 8 spectra, the Nucleus peptide (Upf1 (mouse)) was 5 peptides and the Nucleus spectra (Upf1 (mouse)) was 8 spectra. It also gave a Nucleus peptide (Ddx20 (mouse)) of 3 peptides, a Nucleus spectra (Ddx20 (mouse)) of 7 spectra and a Nucleus peptide (Tufm (mouse)) of 9 peptides. It also gave a Nucleus spectra (Tufm (mouse)) of 25 spectra, a Nucleus peptide (Xpo1 (mouse)) of 4 peptides and a Nucleus spectra (Xpo1 (mouse)) of 6 spectra. The Nucleus peptide (Sfrs17b (mouse)) was 3 peptides, the Nucleus spectra (Sfrs17b (mouse)) was 8 spectra and the Nucleus peptide (Chd4 (mouse)) was 15 peptides. The Nucleus spectra (Chd4 (mouse)) was 26 spectra, the Nucleus peptide (Tet1 (mouse)) was 14 peptides and the Nucleus spectra (Tet1 (mouse)) was 41 spectra. It also gave a Nucleus peptide (Hspd1 (mouse)) of 16 peptides, a Nucleus spectra (Hspd1 (mouse)) of 44 spectra and a Nucleus peptide (Pkm2 (mouse)) of 3 peptides. For the same substance, the Nucleus spectra (Pkm2 (mouse)) was 3 spectra, the Nucleus peptide (Zfp281 (mouse)) was 14 peptides and the Nucleus spectra (Zfp281 (mouse)) was 49 spectra. For the same substance, the Nucleus peptide (Ruvbl2 (mouse)) was 12 peptides, the Nucleus spectra (Ruvbl2 (mouse)) was 31 spectra and the Nucleus peptide (Emd (mouse)) was 4 peptides. For the same substance, the Nucleus spectra (Emd (mouse)) was 10 spectra, the Nucleus peptide (Rpn1 (mouse)) was 3 peptides and the Nucleus spectra (Rpn1 (mouse)) was 5 spectra. For the same substance, the Nucleus peptide (Cse1l (mouse)) was 3 peptides, the Nucleus spectra (Cse1l (mouse)) was 4 spectra and the Nucleus peptide (Lmna (mouse)) was 6 peptides. For the same substance, the Nucleus spectra (Lmna (mouse)) was 13 spectra, the Nucleus peptide (Gcn1l1 (mouse)) was 14 peptides and the Nucleus spectra (Gcn1l1 (mouse)) was 24 spectra. It also gave a Nucleus peptide (Dnaja1 (mouse)) of 13 peptides, a Nucleus spectra (Dnaja1 (mouse)) of 49 spectra and a Nucleus peptide (Kif11 (mouse)) of 3 peptides. For the same substance, the Nucleus spectra (Kif11 (mouse)) was 4 spectra, the Nucleus peptide (Pfkl (mouse)) was 6 peptides and the Nucleus spectra (Pfkl (mouse)) was 10 spectra. For the same substance, the Nucleus peptide (Smarca1 (mouse)) was 7 peptides, the Nucleus spectra (Smarca1 (mouse)) was 14 spectra and the Nucleus peptide (Psmd2 (mouse)) was 5 peptides. It also gave a Nucleus spectra (Psmd2 (mouse)) of 12 spectra, a Nucleus peptide (Nol9 (mouse)) of 6 peptides and a Nucleus spectra (Nol9 (mouse)) of 14 spectra. For the same substance, the Nucleus peptide (Ranbp2 (mouse)) was 57 peptides, the Nucleus spectra (Ranbp2 (mouse)) was 160 spectra and the Nucleus peptide [1] was 3 peptides. The Nucleus spectra [1] was 9 spectra, the Nucleus peptide (Smpd4 (mouse)) was 9 peptides and the Nucleus spectra (Smpd4 (mouse)) was 17 spectra. For the same substance, the Nucleus peptide (Eno2 (mouse)) was 3 peptides and the Nucleus spectra (Eno2 (mouse)) was 7 spectra.
